# Experimental data taken from the DeepSol protein solubility set.
# Test: soluble on expression in E. coli; label from the status in PepcDB or PDB records
row,Sequence,soluble on expression in E. coli
1,MKFPKDFMIGYSSSPFQFEAGIPGSEDPNSDWWVWVHDPENTAAGLVSGDFPENGPGYWNLNQNDHDLAEKLGVNTIRVGVEWSRIFPKPTFNVKVPVERDENGSIVHVDVDDKAVERLDELANKEAVNHYVEMYKDWVERGRKLILNLYHWPLPLWLHNPIMVRRMGPDRAPSGWLNEESVVEFAKYAAYIAWKMGELPVMWSTMNEPNVVYEQGYMFVKGGFPPGYLSLEAADKARRNMIQAHARAYDNIKRFSKKPVGLIYAFQWFELLEGPAEVFDKFKSSKLYYFTDIVSKGSSIINVEYRRDLANRLDWLGVNYYSRLVYKIVDDKPIILHGYGFLCTPGGISPAENPCSDFGWEVYPEGLYLLLKELYNRYGVDLIVTENGVSDSRDALRPAYLVSHVYSVWKAANEGIPVKGYLHWSLTDNYEWAQGFRQKFGLVMVDFKTKKRYLRPSALVFREIATHNGIPDELQHLTLIQ,soluble
2,MKFTDKTTQADTQRTITKDGFLVVPATISKVGVFDYLATELGLKEDGIKKVARTEKSLFSDETIKSFENATLTVGHLKDGVNAKNWKQLSVGVVRNVKRVGDELTAEAWIYDEQAIKTVQEHGVEQLSCGYDCDIKPSTVQDADFEMSPMIGNHVAIVAKGRCGGSVKLADEDKTIMGKTAKILDAFLGAFGIKLSDEQKKQIEDEEKSGSEEGKEPKGEQPTKPKEKKSEPENKKEDDVEKEELEKSLKAKDEEIQQLKDAQAKRDAEVKQAAVLADAKTAFKEVNFADNATVREIQESAVVAQGIFTKDEAAKLSDEEISGAYQTAKVVVAKLADERKSLGNILLGDAEPKAAPKIDFNKTYNS,not soluble
3,MKFTSATGSGQQGSSSGTTNSAGNPDSLKQDKVDKSGDSVTVAETTSGDNLTNYTNLPPNLTPTADPNALSFTNKNNAQRAQLFLRALLGSIPVLVNKSGQDDLEHHHHHH,not soluble
4,MKFTSATGSGSGQGSSSGTNTSAGNPDGLQADKVDQNGQVKTSVQEATSGDNLTNYTNLPPANLTPTADPNALSFTNKNNAQRAQLFLRGLLGSIPVLVNKSGQDDLEHHHHHH,not soluble
5,MKFWKKGLTAAALLAVAAVTLTACGGSSEKKATEKSEDGKTKLTVTTWNYDTTPEFEKLFRAFEAENPDITIEPVDIASDDYDTKVTTMLSSGDTTDILTMKNLLSYSNYALRNQLVDLTDHVKDLDIEPAKASYEMYEIDGKTYAQPYRTDFWVLYYNKKMFDEAGIAYPDNLTWDEYEALAKKLSKPEEQVYGAYQHTWRSTVQAIAAAQNNANLIEPKYNYMETYYDRALRMQKDQSQMDFGTAKSTKVTYQSQFENSKAAMMYMGSWYMGTLLTNIDDGKTNVEWGIAEIPQQEKGKATTFGSPTSFAINKNSKKQKAAQKFLDFASGKEGAKLLAEVGVVPSYKTDEIDKIYFARKGMPSDEVSQKAFNPDTINLEFPSDKNGAAIDKVLQEEHDLIMVGDEKPKDGIANMEKRVKAEID,not soluble
6,MKFYILLVVLVAFVAAKPHPGYGRPSYGGGYGGGGGDFGGGGSGGQWGSQSSSFQQSQSSGGFQNNAGGGFGGGMGPGGGGWGRR,not soluble
7,MKGAARLAPGRPSPAPAWETSDPYAAALRSGHGPLYLRRTDGWLLPLEVERWCARADAVDLDVLDRCEGAVLDVGCGPGRLVAELAARGRTVLGIDVSEAAVTRTVRLGGQSLRRSVFEPLPGEGRWDTVLLMDGNVGIGGDPRTLLGRVAALLAPGGLLIAETAGSDIDERAHVQVVDVTDGDAAGSPFPWARIGTPALLGHARDTGWRPAAQWTSGERRFVALRSSRSASSSAEPPNSTAVTSSQRARKPSADSPVTPWLEHHHHHH,not soluble
8,MKGIIFTEFMELVESKFGLEVLDQVLELSDDEGVYTSVGSYDHRDLVKLIVNLSKVSDIPPEQLQEVFGESVFLNLLRSIPSHASLQQCDNTFQFVRHVESFIHVEVKKLYPDANPPKFDFISETQSELVFDYHSARCMAHVCLGLLKGCAAHFGQVIHIMHQNQTEDGSQVRFWLEAQLEHHHHHH,not soluble
9,MKGKMAIVISTLNNPWFVVLAETAKQRAEQLGYEATIFDSQNDTAKESAHFDAIIAAGYDAIIFNPTDADGSIANVKRAKEAGIPVFCVDRGINARGLAVAQIYSDNYYGGVLMGEYFVKFLKEKYPDAKEIPYAELLGILSAQPTWDRSNGFHSVVDQYPEFKMVAQQSAEFDRDTAYKVTEQILQAHPEIKAIWCGNDAMALGAMKACEAAGRTDIYIFGFDGAEDVINAIKEGKQIVATIMQFPKLMARLAVEWADQYLRGERSFPEIVPVTVELVTRENIDKYTAYGRKEEGSHHHHHH,soluble
10,MKGMKYHDYIWDLGGTLLDNYETSTAAFVETLALYGITQDHDSVYQALKVSTPFAIETFAPNLENFLEKYKENEARELEHPILFEGVSDLLEDISNQGGRHFLVSHRNDQVLEILEKTSIAAYFTEVVTSSSGFKRKPNPESMLYLREKYQISSGLVIGDRPIDIEAGQAAGLDTHLFTSIVNLRQVLDI,soluble
11,MKGSTIGTETKECGKETDFCYNGTADISSFSKFQKAGCNTVICQFHANKCFEQNVSGQLLTFCCCNTDDLCNGGAVTDSGSLFDRGLSVLKGLVSAGKK,not soluble
12,MKHEEMNQRFNHLENEITELNKKLSALVSSEDENKRRDEHYAAIYDYCHKVAHETFMKFLQEKFLPAALSEKEAAYLRPEYVITVNSAGEEEHKSDFIASAPDKDQEPHRPFRVSCEEGEFVVYENGKPVRASHHHCLKIINLAIRCLKDENTRVMKRIGRCMGYLQVAAEIEALASGADMDAAVREALLRDFNTPPLRKSLMTGSSRG,not soluble
13,MKHLSPERLHVTQTAGITQLSPVNGRLYTLTHSDTTGALFLTVSRAFVTDQLTSQRDEVLGEWKQAGQQLVLFLYVFIGNRQMGRQENARRANVFKKELPLALEAIRYGDRAFFHTYPFCDWCPIFIHFTSEYPELNRTEYYGTPYLYR,not soluble
14,MKHTTKQMEILSDIRTLLHKKEEHLKRQNEKFLRETGVSSMSLSELHVIECIGKNGLMNVTAITTEMGMTKGAISKICTKLFQKQFVEKLQMLDNQKEIFFSLTESGNEIYKAHEKLHKQAEEKWLLLLDGYTKEEQDFIQRFIKDVSGHLEI,not soluble
15,MKIAIVGTGISGLTCGYYLHQQHDITLFEANDYIGGHTATVDVRVGIEDYAIDTGFIVYNDRTYPNFIKMMNEIGVEGIPTQMSFSVRNDGNGLEYNGHTLTTLFAQKRNWLNPKFYRFVLEILRFNKLAKASATEQISSSQSLGAFLDEHQFSDFFSDNYILPMGAAIWSSSLADMRAFPLMFFLRFFLNHGLLDVTNRPQWYVIKGGSRAYIPPLTQGFADKIRLNSPVEKVVRSEQGVAIYANGQCEWFDEVIFACHSDQALAMLSDASSCENDILSNMAYQANDVVLHTDTSVLPKRKSAWASWNYLLEGGEEEQQRLPSLTYNMNILQHIDSSHTFCVTLNRTEDIDENKILRQFTYHHPVFTTESIAAQQRKEEIQGAQHTWFCGAYWYNGFHEDGVRSALDVVKGIAAKHNEKNDTLYEQGAALEHHHHHH,soluble
16,MKIALIGASGYVGSALLKEALSRGHHVTALVSRPERIAAQANLAAAKVDVQDSAQLAEQLKGFDAVLSAFSGHAQAEQFDYFVKGIRSIIAAAKAAQAPRLLVVGGAGSLEVAPGVQLVDTPEFPEQWKASALGAREALNLLRAETELNWTLLSPSAMLQPGQRTGQFRLGKDQLLVDAEGNSHISVEDYAVAMIDELEKGLEHHHHHH,not soluble
17,MKIAVTKFLGTNCDLDVCHAVKLAGGEPELVFFTQENLDSYKGAVIPGGFSYGDYLRAGAISARTPIIKGLKKMVEEGKPVLGICNGAQIGLEAGFSKGTLTNNLNAKFICKWVYIRVENNKTPFTQYYKKGEVLKIPIAHAEGRFYADDETLDYMYKNNMIVFKYCDETGEVTEEANPNGSIDNIAGVCNENQNCVLLMPHPERASEKILGSDDGLKMFKGMIDYAKRI,soluble
18,MKIDISDILKHSGASLRLDFSESIKINDFIAEDFDFAKPVTFKGTLVNAGGIIKLDGELWADYRAKCSRCLKDIESKMHIDVKENFVEEGSNKTDEEYYTYHGKFLELEKVMIDNIILNLPAKQVCDEACKGYCPKCGADLNNDECKCVNEDIDPRLEVFKNFFTDN,soluble
19,MKIFKFTPENNLFYGYILEDMKTGFNILREIMVEGYRPSIARLYDAEDGTQHFTHFADGKCVLIFMAEGNPRIAKVTGEGIAEIVARYPQCQRVDSKLIETWFNNLNWGPDKVAAERVQILKTGNMGFTTEVSGCWSCIHEIYESVINRIRTEFPHADDITMLGGHSSHSYQNGTNMYFVYDYNVVDCKPEEEIDKYHNPLNKIICEETIRLGGSMVHHHGIGKHRVHWSKLEHGSAWALLEGLKKQFDPNGIMNTGTIYPIEK,soluble
20,MKIGFIGAGSMGGAMIKGLLKAEAVKKEHLYVKGGSSGTAEALQKEWGFQLVTDYALFQECKVIFIATGAKVVLPVLQELAPHFSNESLLISVATGHTIQEAQMALGNKEAKVVHAIPNTPVSVNQGVIGVALAPTIEGQTKDLAMELLATLGLVKEIREAQLETFGTVAGCSPAFVDIFMEALGDAAVLEGLPRDLSYEIVAQMIKGTATLALDTKKHPGALKDEVTSPGGSTIRGVVALEKNGFRYAVMDAVQQANHE,soluble
21,MKIIDEHTFEGKGYHPFLITDRWQVAYLNYAEAESLEQIEKLDIHHQTDEVFILLQGKAALIGASVTDQNITYDVVNMQPGIVYNIRREVWHKIAMQPGSQVLIIENNDTHLNDFEFFELTESQKSQLRECVTKIVSLTEN,not soluble
22,MKIITAINEDEWASITHIATTVHLKKDQLIIRKGDPGNKEVFLVNGIVRGFITDENGNEKSTSFFEEGEFMSTQALRTKKGISLYNYQALCRTKLLIFDSKQLKDLLSATKKLSEIGKAIKERELTRLMNRDDCLMQVKALDKYQKFITYYPALERQISQRYIASYLGITPVSLSRLKKSMIVRTDNN,not soluble
23,MKILILGGRFGGLQTAYDLRRYLKNKADIKIIEKNRYIYFRPALPHVGIGLERAEDLRIDLAQVLPDRGIGYIQGTVTKIDPERSLVEYSREGSGGYKEKYDFLVIALGAHLASELIAGFDKYGSSVCEADLAENMWKKLRDFKGGNITLGSAKFIQDTKNRPTNTPDRYAPIADSACEGPVFEMSIMLYDYFKARNMLDKVKMTVYSPGEYLSDLSRTSRSTVAAMYKGMNIELVDNFVVKEVTEKEVISEDGRRLPSDISFILPPYTGQKLVKDAGLGDDVGFVLTGTDMKSVKYDNVYAVGDVNALIVPKMAFLAVKTARIVAANIANRLGMSIPVEVYDPKIVCVADSPYGNYAVAVTDSTFYGGNVSEAIPSPANHLKKTLFTRYFLWSKGDLAMDKYLTSWLEHHHHHH,not soluble
24,MKILKKIFQVIVKIINHCVPVDSRSLYFIPHPNCRTDKYDIINYSSDNVLVLLNYLLKKDSAEYYKIYVEIYDSSRISEYQEYIYGINPNIRCTFLCACVGRFFFNKVSFKDMLYAFFCFCRASKCFTATFYYDFSFKKRSQQIICLGYYTPFKDDYHMGDHSYDKFRNTTCNSFDYSIATSCLSARIISIDCGISYDKFKVLGFPRNDLLISKNNCNVIKREISKFAGYDVTKYIVYTPTFRDYETVTEGNLRSILGYVDCDLLKLSKILLKFNAALILKLHPLQNKTVLKKDLPKGILVFEQTYKYGLYDLLSFSDGMITDYTSTYFDFLLVNKPVIFNFYDIEEYRRVRGFSFEPIEFFCAGDIVYNYNELIDAVMGLLAGKDIHAEHRRHISLLMNQFQDDNSTKRICDIFLNEILEHHHHHH,not soluble
